The values that follow come from article PMC9860317, “Regulation of the DEAH/RHA helicase Prp43 by the G-patch factor Pfa1” (Proceedings of the National Academy of Sciences of the …, 2022).

Data set [1] has as its target scPrp43 (Saccharomyces cerevisiae S288c) (UniProt P53131). The data set can be described thus: smFRET (TIRF). Particulars: smFRET: 50 mM Tris-HCl pH 7.5, 150 mM KCl, 3 mM MgCl2 (TIRF buffer B; imaging in TIRF buffer C), FP: 6 nM labeled ssRNA, buffer and temperature not in material.
For data set [2], the target named is T1, scPrp43;scPfa1(gp) (Saccharomyces cerevisiae S288c;Saccharomyces cerevisiae) (UniProt P53131+P53866). Put plainly: smFRET (TIRF). The conditions noted are these: smFRET: 50 mM Tris-HCl pH 7.5, 150 mM KCl, 3 mM MgCl2 (TIRF buffer B; imaging in TIRF buffer C), FP: 6 nM labeled ssRNA, buffer and temperature not in material.
The target in data set [3] is Chaetomium thermophilum Prp43 with fluorescence labelling sites at C170 (RecA1) and C303 (RecA2), Cy3/Cy5-labelled (Chaetomium thermophilum).
Data set [4] has as its target scPrp43 (Saccharomyces cerevisiae S288c) (UniProt P53131). The data set can be described thus: fluorescence polarization. The conditions noted are these: smFRET: 50 mM Tris-HCl pH 7.5, 150 mM KCl, 3 mM MgCl2 (TIRF buffer B; imaging in TIRF buffer C), FP: 6 nM labeled ssRNA, buffer and temperature not in material.
Data set [5] addresses T1, scPrp43;scPfa1(gp) (Saccharomyces cerevisiae S288c;Saccharomyces cerevisiae). The data set can be described thus: fluorescence polarization. Particulars: smFRET: 50 mM Tris-HCl pH 7.5, 150 mM KCl, 3 mM MgCl2 (TIRF buffer B; imaging in TIRF buffer C), FP: 6 nM labeled ssRNA, buffer and temperature not in material. (Polarisation of emitted light reports the rotation of a fluorescent probe.)

Values joined by “and” are separate entries in the source; they are usually repeats but may differ in a detail not shown here. Identical values can stand only once.

Usually Kd stands for the free concentration of one partner at which half of the binding sites on the other are occupied at equilibrium, for simple one-to-one binding. The low end stands for higher affinity, the high end for lower affinity.

With “GCGCCUACGCCACCAGCUCCGUAGGCGCAGGAGCGCCUACGGAGCUGGUGGCGUAGGCGCAAAAAAAAAAAAAAAUAAAAAAAAAAAAAAAAAAAA [smFRET stem-loop RNA probe with 3' overhang]”, the binding signal in data set [1] (0.5 uM Prp43, 2 mM AMPPNP) is 36 % bound; in data set [1] (5 uM Prp43, apo (main text gives 24%)), 21 % bound; in data set [2] (0.5 uM Prp43, 2.5 uM Pfa1(gp), nucleotide-free) it was 88 % bound; in data set [2] (ADP, koff 0.45 s-1), 52 % bound. For the same substance, the binding signal (% bound (plus 20% partially unwound)) in data set [2] (2 uM ATP, table row label cut, matched by FRET values) is 55.

Consider “G-patch motif of Chaetomium thermophilum Pfa1 (domain or fragment)”, for which, in data set [3], the ATP turnover (kcat) of the Prp43–Pfa1(gp) complex with ssRNA, coupled enzymatic assay is 9.6 s⁻¹ and the ATP turnover (kcat) of the Prp43–Pfa1(gp) complex without ssRNA, coupled enzymatic assay (Prp43 alone: kcat = 0.01 s^-1) worked out at 0.4 s⁻¹.

Consider ssRNA (fluorescence polarization), for which the Kd was over 100000 nM in data set [4] (ADP); 400 nM in data set [4] (AMPPNP); 7000 nM in data set [4] (nucleotide-free); 30 nM in data set [5] (nucleotide-free, with Pfa1(gp)); 80 nM and 500 nM in data set [5].
